Measured values published in article PMC3646814, “Tetramerization Reinforces the Dimer Interface of MnSOD” (PLoS ONE, 2013).

How the values were obtained:
[1] = molecular target: K184R, L185P CaMnSODc (Candida albicans)
[2] = molecular target: K184R, L185P CaMnSODc (Candida albicans); remark: listed apart in the source
[3] = molecular target: K184R, L185P CaMnSODc (Candida albicans); remark: listed apart in the source
[4] = molecular target: K184R, L185P CaMnSODc (Candida albicans); assay: SEC; HPLC-SEC (TSK gel G2000SW), as-isolated proteins, 10 µM to 200 nM with respect to monomer, 10 mM potassium phosphate pH 6.7; Kd of the step dimer to monomers, from area integrals of the elution peaks
[5] = molecular target: K184R, L185P CaMnSODc (Candida albicans); assay: crystal structure; hanging-drop vapor diffusion at 4°C, protein 7 mg/mL; methylated K182R, A183P ScMnSOD in 0.1 M tri-ammonium citrate pH 7, 20% PEG 3,350; unmodified K184R, L185P CaMnSODc in 2 M ammonium sulfate
[6] = molecular target: wild-type manganese superoxide dismutase from Candida albicans cytosol (Candida albicans); assay: SEC; HPLC-SEC (TSK gel G2000SW), as-isolated proteins, 10 µM to 200 nM with respect to monomer, 10 mM potassium phosphate pH 6.7; Kd of the step dimer to monomers, from area integrals of the elution peaks
[7] = molecular target: the molecule itself; assay: as above
[8] = molecular target: the molecule itself; assay: crystal structure; hanging-drop vapor diffusion at 4°C, protein 7 mg/mL; methylated K182R, A183P ScMnSOD in 0.1 M tri-ammonium citrate pH 7, 20% PEG 3,350; unmodified K184R, L185P CaMnSODc in 2 M ammonium sulfate

K184R, L185P CaMnSODc (enzyme)
rate constant of O2^- dismutation by pulse radiolysis at 1 µM to 2.2 µM enzyme [1]: 9.9e+08 M⁻¹ s⁻¹ | pK (the pH at which the SOD activity drops by 50%), pulse radiolysis [2]: 8 pH | SOD activity (pulse radiolysis) after heating at 41°C (% activity lost) [3]: 70 | Kd [4]: 2000 nM | stoichiometry N [4]: 2 | stoichiometry N [5]: 4

wild-type manganese superoxide dismutase from Candida albicans cytosol (enzyme)
stoichiometry N [6]: 2

B1: wild-type manganese superoxide dismutase from Saccharomyces cerevisiae mitochondria (enzyme, S. cerevisiae, UniProt P00447 27-233, looked up)
chain: KVTLPDLKWDFGALEPYISGQINELHYTKHHQTYVNGFNTAVDQFQELSDLLAKEPSPANARKMIAIQQNIKFHGGGFTNHCLFWENLAPESQGGGEPPTGALAKAIDEQFGSLDELIKLTNTKLAGVQGSGWAFIVKNLSNGGKLDVVQTYNQDTVTGPLVPLVAIDAWEHAYYLQYQNKKADYFKAIWNVVNWKEASRRFDAGKI
notes: Manganese superoxide dismutase of S. cerevisiae mitochondria (ScMnSOD), expressed from a 2-kb genomic BamHI fragment containing the gene; As isolated, 0.70 Mn per monomer; also called ScMnSOD; WT ScMnSOD; source: S. cerevisiae sod2Δ strain (EG110), overexpressed from YEp352-ScMnSOD, purified
stoichiometry N [7]: 4

B2: methylated K182R, A183P ScMnSOD (enzyme, S. cerevisiae, UniProt P00447 27-233, looked up)
chain: KVTLPDLKWDFGALEPYISGQINELHYTKHHQTYVNGFNTAVDQFQELSDLLAKEPSPANARKMIAIQQNIKFHGGGFTNHCLFWENLAPESQGGGEPPTGALAKAIDEQFGSLDELIKLTNTKLAGVQGSGWAFIVKNLSNGGKLDVVQTYNQDTVTGPLVPLVAIDAWEHAYYLQYQNKRPDYFKAIWNVVNWKEASRRFDAGKI
modifications: all free amino groups of the lysine residues and the N-terminus methylated (reductive methylation, confirmed by mass spectrometry)
notes: Manganese superoxide dismutase of S. cerevisiae mitochondria (ScMnSOD) with K182R and A183P; The form that was crystallised; 0.71 Mn per monomer; theoretical mass of the methylated protein 23,589 Da; also called methylated RP-mutant ScMnSOD; source: S. cerevisiae sod2Δ strain (EG110), overexpressed, purified, then reductive methylation
stoichiometry N [8]: 4

B3: K182R, A183P ScMnSOD (enzyme, S. cerevisiae, UniProt P00447 27-233, looked up)
chain: KVTLPDLKWDFGALEPYISGQINELHYTKHHQTYVNGFNTAVDQFQELSDLLAKEPSPANARKMIAIQQNIKFHGGGFTNHCLFWENLAPESQGGGEPPTGALAKAIDEQFGSLDELIKLTNTKLAGVQGSGWAFIVKNLSNGGKLDVVQTYNQDTVTGPLVPLVAIDAWEHAYYLQYQNKRPDYFKAIWNVVNWKEASRRFDAGKI
notes: Manganese superoxide dismutase of S. cerevisiae mitochondria (ScMnSOD) with K182R and A183P; Unmethylated form used for HPLC-SEC; as isolated, 0.71 Mn per monomer; also called RP-mutant ScMnSOD; as-isolated K182R, A183P ScMnSOD; source: S. cerevisiae sod2Δ strain (EG110), overexpressed from YEp352-ScMnSOD (mutant), purified
stoichiometry N [7]: 4
